Target: human α7 nAChR TM domain (human)
Assay: SEC-MALS

Substance: human α7 nAChR TM domain (domain or fragment)
- stoichiometry N: 5
